Key:
human Dll4 = human Dll4 (human, UniProt Q9NR61 27-524, limits assumed); test: cell-based or functional assay
[1] = tested on: human A549 tumor cells (non-small cell lung cancer); test: Growth of human A549 tumors implanted in humanized Dll4 SCID mice; format: in vivo; conditions: REGN421 2 mg/kg sc (6 mg/kg total)
Protocol: Tumor growth delay, TGD, was assessed as the difference in days between treated (T) versus control (C) tumors when each cohort reached a specified tumor size. The predetermined tumor size for this experiment was 600 mm^3.
Each mouse was implanted subcutaneously (sc) with 5×10^6 human A549 tumor cells (non-small cell lung cancer or “NSCLC”). […] A total of 36 mice were divided into 6 groups (n=6 per cohort). The first group was treated sc with hFc at 2 mg/kg; the second group was treated sc with REGN421 at 2 mg/kg; the third and fourth groups were treated ip with cisplatin at 2.5 and 4.5 mg/kg, respectively; the fifth group was treated sc with REGN421 at 2 mg/kg and ip with cisplatin at 2.5 mg/kg; and the sixth group was treated sc with REGN421 at 2 mg/kg and ip with cisplatin at 4.5 mg/kg. REGN421 was administered every 3-4 days starting on day 29 and mice received three doses total. Cisplatin was administered every 24 hours starting on day 29 and mice received two doses total.
To assess the effects of REGN421 and cisplatin as single agents or in combination we measured tumor size (volume), beginning three days before the initial REGN421 treatment, on the day of each agent treatment (days 29, 30, 33, 36) and thereafter every 3-4 days until tumors reached ˜600 mm^3 in size.

TOV-112D cells = test: TOV-112D ovarian xenograft (subcutaneous) tumor growth inhibition; format: in vivo, human
Protocol: (§1) Ovarian tumor xenograft cells were implanted into humanized Dll4 SCID mice or vendor SCID mice (i.e., SCID mice expressing native murine Dll4). After implantation, mice were treated with REGN421 (anti-human Dll4 antibody, binds to human Dll4), mDll4Ab1 (anti-murine Dll4 antibody, binds to murine Dll4), or a human Fc domain control protein. In one study, mice were treated with VEGF-Trap, mDll4Ab1 or VEGF-Trap plus mDll4Ab1. TOV-112D cells (5×10^6) were implanted subcutaneously into the right flank of humanized Dll4 (n=4) or vendor SCID mice (n=7). Treatment with REGN421 (2.5 mg/kg, 1×/week) or mDll4Ab1 (5 mg/kg, 1×/week) vs. hFc control was initiated one week after tumor cell implantation. Animals were treated for 2 to 3 weeks. A2780 cells (2×10^6) were implanted intraperitoneally into humanized Dll4 or vendor SCID mice (n=4-5). Treatment with REGN421 (2.5 mg/kg, 1×/week) or mDll4Ab1 (5 mg/kg, 1×/week) vs. hFc control was initiated one week after tumor cell implantation. For the A2780 combination study, simultaneous treatment with mDll4Ab1 (5 mg/kg, 1×/week) and VEGF-Trap (10 mg/kg, 2×/week) was initiated one week after tumor cell implantation. A VEGF-Trap single treatment arm was included in this study. Animals bearing A2780 tumors were treated for 4-5 weeks. SKOV-3 cells (5×10^6) in matrigel were implanted subcutaneously and tumor-bearing animals (n=10) were dosed with REGN421 (2.5 mg/kg) and mDll4Ab1 (5 mg/kg) once weekly. OVCAR-3 cells (1×10^7) were implanted subcutaneously into the right flank of vendor SCID mice (n=7). Treatment with mDll4Ab1 (5 mg/kg 1×/week) vs. hFc control was initiated 66 days after tumor cell implantation. Animals were treated for a total of 5 weeks. Tumor growth inhibition (TGI) was measured as detailed above.

A2780 cells = test: A2780 ovarian xenograft (intraperitoneal) tumor growth inhibition; format: in vivo, human; conditions: for % TGI: REGN421 2.5 mg/kg 1x/week
Protocol: as §1

human Dll4, sequence (Q9NR61 27-524 limits assumed): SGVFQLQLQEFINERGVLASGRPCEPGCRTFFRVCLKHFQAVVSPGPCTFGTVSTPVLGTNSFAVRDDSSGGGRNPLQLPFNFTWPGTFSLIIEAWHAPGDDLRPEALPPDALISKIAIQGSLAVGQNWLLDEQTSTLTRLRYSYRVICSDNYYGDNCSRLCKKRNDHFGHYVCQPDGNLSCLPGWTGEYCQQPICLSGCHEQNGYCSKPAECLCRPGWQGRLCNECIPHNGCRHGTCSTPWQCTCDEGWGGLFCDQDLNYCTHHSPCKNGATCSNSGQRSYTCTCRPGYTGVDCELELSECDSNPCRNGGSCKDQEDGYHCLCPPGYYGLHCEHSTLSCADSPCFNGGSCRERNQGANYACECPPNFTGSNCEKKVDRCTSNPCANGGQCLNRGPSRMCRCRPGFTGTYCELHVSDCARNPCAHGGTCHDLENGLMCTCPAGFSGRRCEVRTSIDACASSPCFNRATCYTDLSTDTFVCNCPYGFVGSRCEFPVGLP

B1: REGN421 (antibody, V domains shown)
VH: QVQLVESGGGVVQPGRSLRLSCAASGFTFSSYGMHWVRQAPGKGLEWVSFLWYDGTNKNYVESVKGRFTISRDNSKNMLYLEMNSLRAEDTAVYYCARDHDFRSGYEGWFDPWGQGTLVTVSS
VL: EIVLTQSPATLSLSPGERATLSCRASQSVSSYLAWYQQKPGQAPRLLIYDASNRATGIPARFSGSGSGTDFTLTISSLEPEDFAVYYCQHRSNWPPTFGGGTKVEIK
Hey-1 transcript Post-treatment vs. Pre-treatment ratio (patient 1, 0.25 mg/kg) (human Dll4): 0.52 ratio | Hey-1 transcript Post-treatment vs. Pre-treatment ratio (patient 2, 0.25 mg/kg) (human Dll4): 0.85 ratio | Hey-1 transcript Post-treatment vs. Pre-treatment ratio (patient 3, 0.25 mg/kg) (human Dll4): 0.77 ratio | Hey-1 transcript Post-treatment vs. Pre-treatment ratio (patient 4, 0.25 mg/kg) (human Dll4): 0.51 ratio | Hey-1 transcript Post-treatment vs. Pre-treatment ratio (patient 5, 0.25 mg/kg) (human Dll4): 0.61 ratio | Hey-1 transcript Post-treatment vs. Pre-treatment ratio (patient 6, 0.25 mg/kg) (human Dll4): 0.55 ratio | Hey-1 transcript Post-treatment vs. Pre-treatment ratio (patient 7, 0.25 mg/kg) (human Dll4): 0.75 ratio | Hey-1 transcript Post-treatment vs. Pre-treatment ratio (patient 8, 0.5 mg/kg) (human Dll4): 0.68 ratio | Hey-1 transcript Post-treatment vs. Pre-treatment ratio (patient 9, 0.5 mg/kg) (human Dll4): 0.82 ratio | TGD [1]: 8 days | TGI (%) at Day 57 [1]: 54% | % TGI (TOV-112D cells; Humanized Dll4 SCID mice, REGN421 2.5 mg/kg 1x/week): 86% | % TGI (TOV-112D cells; SCID mice (native murine Dll4), REGN421 2.5 mg/kg or mDll4Ab1 5 mg/kg 1x/week): 0% | anti-tumor activity (in words) (TOV-112D cells; vendor SCID mice): did not exhibit any appreciable anti-tumor activity | % TGI (A2780 cells; Humanized Dll4 SCID mice, 2.5 mg/kg): 83% | % TGI (A2780 cells; SCID mice (native murine Dll4), mDll4Ab1 5 mg/kg 1x/week, VEGF-Trap 10 mg/kg 2x/week): −37% | anti-tumor activity (in words) (A2780 cells; vendor SCID mice): did not exhibit any appreciable anti-tumor activity

Source: patent publication US20140134169A1, “Methods of Treating Ovarian Cancer with Dll4 Antagonists” (Regeneron Pharmaceuticals, Inc., priority 2012, published 2014)
